{"source": "patent US20030175888", "proteins": {"B1": {"name": "LnmG (protein)", "chain": "MVALVFPGQGSQRKGMGADLFARFPDLTRQADTVLGHSVEELCRSSGDGRLDRTEYAQPALFVVSALSYLARDPGLPQPTLLAGHSLGEYGALFAAGCFDFATGVRLVRERGALMGRAQGGGMLAVLGVDGDEVQALLAGTGARQVDVANYNTPTQTVLSGPLDELRMVSAALGQRPGVRCVPVRVSAAFHSRHMRPAAQEFATFLTGFSFADPHRTVISSVTARPYGAGQVAELLSRQIESPVRWSETMAYLRERGTTELEEMGPGKVLTGLWKQGRADGAKARAVAPAPVAVVAGVPAAAAARAPASPAPVAARAATAAPARPSDPAPPAPRTAPSPASPVPPASVSRGQRAEELGSAEFRQDYGIRYAYLAGAMFRGIASAELVIRMGRAGLMGFFGAGGLGLDKVESALVRIKDALGPDGRYGMNLLHSIDDPAYEHAVVDLCLKHGVHDVEAAGFTQLTPAVVQFRFSGAHRDAAGRAVAVRRVLAKVSRPEVAAAFMAPAPAAILRRLTADGRLTPQEAEIAAELPVGQDICVEADSGGHTDGGAALTLLPSMIRHRDAAMARHGYGRRIRIGAAGGIGAPEAVAAAFVLGADFVLTGSVNQCSPEAGTSDAVKDILAGLDVQDTAYAPAGDMFEIGARVQVVRKGTLFAARGNKLYQLYRSHDSWESIDAGTRRSVEETYFKRPFAEVWEETRAYHLGRGRDAEIEKADRLPKHRMALAFRWYFARSVRWGLEGEPTQKVNYQIQCGPAIGAFNHVVRGTGLEDWRHRHVDLIAEHLMTGAADVLARR"}}, "key": {"[1]": {"target": "LnmI-ACP3 (holo-form)"}, "[2]": {"target": "LnmJ-ACP4 (holo-form)"}, "[3]": {"target": "LnmJ-ACP5 (holo-form)"}, "[4]": {"target": "LnmJ-ACP6-1 (holo-form)"}, "[5]": {"target": "LnmJ-ACP6-2 (holo-form)"}, "[6]": {"target": "LnmJ-ACP7 (holo-form)"}, "[7]": {"target": "LnmJ-ACP8 (holo-form)"}, "[8]": {"target": "T1, LnmP PCP (holo-form)", "T1 chain": "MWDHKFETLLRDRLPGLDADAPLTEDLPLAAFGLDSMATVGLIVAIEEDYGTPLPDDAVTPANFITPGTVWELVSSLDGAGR"}, "[9]": {"target": "apo-LnmJ-(DH-ACP-KR)"}, "[10]": {"target": "holo-LnmJ-(DH-ACP-KR)"}}}
{"protein": "B1", "values": [{"measurement": "loading of the [2-14C]malonyl group onto the holo-ACP (SDS-PAGE and phosphor imaging, 5 min)", "setting": "[1]", "result": "six of the seven ACPs were efficiently loaded with the malonyl group (FIG. 13C, lanes 2-4 and 6-8)"}, {"measurement": "loading of the [2-14C]malonyl group onto the holo-ACP (SDS-PAGE and phosphor imaging, 5 min)", "setting": "[2]", "result": "six of the seven ACPs were efficiently loaded with the malonyl group (FIG. 13C, lanes 2-4 and 6-8)"}, {"measurement": "loading of the [2-14C]malonyl group onto the holo-ACP (SDS-PAGE and phosphor imaging, 5 min)", "setting": "[3]", "result": "six of the seven ACPs were efficiently loaded with the malonyl group (FIG. 13C, lanes 2-4 and 6-8)"}, {"measurement": "loading of the [2-14C]malonyl group onto the holo-ACP (SDS-PAGE and phosphor imaging, 5 min)", "setting": "[4]", "result": "with ACP6-1 being loaded less efficiently (FIG. 13C, lane 5)"}, {"measurement": "loading of the [2-14C]malonyl group onto the holo-ACP (SDS-PAGE and phosphor imaging, 5 min)", "setting": "[5]", "result": "six of the seven ACPs were efficiently loaded with the malonyl group (FIG. 13C, lanes 2-4 and 6-8)"}, {"measurement": "malonyl loading of the two ACPs of PKS module 6 in vitro", "setting": "[5]", "result": "LnmG prefers ACP6-2 in vitro"}, {"measurement": "loading of the [2-14C]malonyl group onto the holo-ACP (SDS-PAGE and phosphor imaging, 5 min)", "setting": "[6]", "result": "six of the seven ACPs were efficiently loaded with the malonyl group (FIG. 13C, lanes 2-4 and 6-8)"}, {"measurement": "loading of the [2-14C]malonyl group onto the holo-ACP (SDS-PAGE and phosphor imaging, 5 min)", "setting": "[7]", "result": "six of the seven ACPs were efficiently loaded with the malonyl group (FIG. 13C, lanes 2-4 and 6-8)"}, {"measurement": "loading of the [2-14C]malonyl group onto the holo-PCP (SDS-PAGE and phosphor imaging, 5 min)", "setting": "[8]", "result": "no loading was observed for the LnmP PCP (FIG. 13C, lane 9)"}, {"measurement": "loading of the [2-14C]malonyl group onto the tridomain protein (9% SDS-PAGE and phosphor imaging)", "setting": "[9]", "result": "no loading was observed with the apo-LnmJ-(DH-ACP-KR) protein (lane 2)"}, {"measurement": "loading of the [2-14C]malonyl group onto the tridomain protein (9% SDS-PAGE and phosphor imaging, 2 to 60 min)", "setting": "[10]", "result": "LnmG efficiently loaded the malonyl group to holo-LnmJ-(DH-ACP-KR) (lanes 3-6)"}]}
